In the assay the target is GST-DLG1 PDZ domain fusion protein (human homolog of Drosophila discs large protein AA275-477; PDZ domains 1-2 of 3) (human) [GST: P08515]. In words: variant of G assay: 100 µM unlabeled 8-mer with 20 µM biotin-labeled AA2L CLASP-2 peptide on GST-DLG1.

Bounds are passed on as bounds.

Sequence of GST-DLG1 PDZ domain fusion protein (human homolog of Drosophila discs large protein AA275-477; PDZ domains 1-2 of 3) (human) [GST: P08515] (P08515 1-218, tags or fused parts left off): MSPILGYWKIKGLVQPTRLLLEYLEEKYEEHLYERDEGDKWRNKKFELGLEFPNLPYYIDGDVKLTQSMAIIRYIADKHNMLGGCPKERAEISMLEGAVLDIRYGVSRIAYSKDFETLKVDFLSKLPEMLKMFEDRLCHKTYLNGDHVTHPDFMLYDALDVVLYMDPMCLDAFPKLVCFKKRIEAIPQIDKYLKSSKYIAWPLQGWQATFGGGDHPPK

The substance “eight amino acid CLASP-2 peptide MTSSSSVV (unlabeled competitor)” returned a percent inhibition greater than 50%.

These data come from patent US20090149339A1.
